Test: yeast display, Sf9 membrane polyspecificity reagent, FACS + sequencing; frameworks hold sequencing errors
Method in brief: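 Galactose induction of a Saccharomyces cerevisiae BJ5465 synthetic nanobody display library ran 36–48 hours. The cells were then stained for 1 hour at 4 °C with 10% biotinylated, detergent-solubilized Sf9 membrane reagent, pulled down on streptavidin microbeads and FACS-sorted into low and high (top ~1%) gates on expression and reagent-binding fluorescence. Labels for polyreactivity follow the gate of origin.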

Row | Sequence | polyreactivity (PSR sort gate)
1 | QVQLVESGGGLVQAGGSLRLSCAASGLIFENNAMGWYRQAPGKERELVAAITKGGGSTYYADSVKGRFTISRDNAKNTVYLQMNSLKPVDTAVYYCAKDHPWHRYWQYWYDYWGLGTQVTVSS | low polyreactivity
2 | QVQLVESGGGLVQAGGSLRLSCAASGRTFIEYAMGWYRQAPGKERELVAAISRNDGGSTYYADSVKGRFTISRDNAKNTVYLQMNSLKPEDTAVYYCAARRYISAHVRYGSWGQGTQVTVSS | high polyreactivity
3 | QVQLVESGGGLVQAGGSLRLSCAASGRTFTRYAMGWYRQAPGKERELVAAISYIGGRTNYADSVKGRFTISRDNAKNTVYLQMNSLKPEDTAVYYCAASRPWVYYDGLDYWGQGTQVTVSS | high polyreactivity
4 | QVQLVESGGGLVQAGGSLRLSCAASGIIFRLNTMGWYRQAPGKERELVAAITSGGSTQYADSVKGRFTISRDNAKNTVYLQMNSLKPEDSAVYYCAAGHRANYWAWHFYYPGDFWGQGTQVTVSS | low polyreactivity
5 | QVQHVESGGGLVQAGGSLRLSIAASVFTFKGNAMGWYRQGPGKEMELVSTITQSGGSTYYADSVKGRFTISRDNAKNTVYLQMNSLKPEDTAVYFCNADPITLYYYSWYNYWGQGTQVTVSS | low polyreactivity
6 | QVQLVESGGGLVQAGGSLRLSCAASGRTFQYYAMGWYRPAPGKERELVAALSSRGGSTYYADSVKGRFTISRDNAKNTVSLQMNSLKPEDTAVYYCAAYVLPRQRVRSDYWGQGTQVTVTS | high polyreactivity
7 | QVQLVESGGGLVQAGGSLRLSCAASGSIFTPYAMGRYRQAPGKERELVAAISRSGGRTYYADSVKGRFTISRDNAKNTVYLQMNSLKPEDTAVYYCNAGAGQRVSGHSFEYWGQGTQVTVSS | high polyreactivity
8 | QVQLVESGGGLVQAGGSLRLSCAASGSIFRIYAMGWYRQAPGQESELVAAINAGGGRTYYADSVKGRFTISRDNAKNTVYLQMNSLKPEDTAVYYCAARHTEYRQESLYYWGQGTQVTVSS | low polyreactivity
9 | QLQLQESSGGLVQAGGSMRMTCAASGTIFHFHIMGWYRPAPGKEREFVAAISYGTSTYYADSVKGRFTISRDNAKNTVYLQMNSQKPEDTAVYYCAVYDYLEVYCWYWGQGTQVTVSS | low polyreactivity
10 | QVQLVESGGGLVQAGGSLRLSCAASGLTFWKYTMGWYRQAPGKERELVAAISISGTNTYYADSVKGRFTISRDNAKNTVYLQMNSLKPEDTAVYYCAAVRGYPPTNYYYWGQGTQVSVSS | high polyreactivity
11 | QVQLVESGGGLVQAGGSLRLSCAASGRIFSGYAMGWYRQAPGKERELVAAITSVGSTNYADSVKGRFTISRDNAKYTVYLQMNSLKPEDTAVYYCAKDTGQGYYWGQGTQVTVSS | high polyreactivity
12 | QVQLVESGGGLVQAGGSLRLSCAASGYIFRYYAMGWYRQAPGKERELVAVISSTGTSTYYADSVKGRFTISRDNAKNTVYLQMNSLKPEDTAVYYCAVKGYFSYWRYQSDYWGQGTQVTVSS | high polyreactivity
13 | QVQLVESVRGLVQAGGSLRLSCDASAFIFRSYAMGWNRQAPGKERELVAVISRRGVNTHYADSVKGRFSISRDNAKNTVYLQINSLKPEDTAVYYCAAELSYRGYPYDYWGQGTQVTVSS | high polyreactivity
14 | QVQLVESGGGLVQAGGSLRLSCSASGRTFSWYAMGWYRKAPGKERELVAAISYSGGSTYYADSVKGRFTISRDNAKNTVYLQMNSLKPEDTAVYYCARTRRHSQNFDYWGQGTQVIVSS | high polyreactivity
15 | QVQIVESGGGLVQAGGSLRLSCAASGRIFDGYAMGWYRQAPGKERELVAAISLSDGSTYYADSVKGRFTISRDHAKNTVYLQMNILKPEDTAVYYCAARVQHYLATDDYWGQGTQVTVSS | low polyreactivity
16 | QVQLVESGGGLVQAGGSLRLSCAASGRILYNYAMGWYRQAPGKERELVAAISSGGSTNYADSVKGRFTISRDNAKNTVYLQMNSLKPEDTAVYYCAAYRGHSWRGLYRWSDYDYWGQGTQVTVSS | low polyreactivity
17 | QEQLLESGGGLLQAGGSLRLSCAASGSNFVSVTMGWYRQATGKELELVASIGRGSTTNHADSVKGRFTISRDNAKNIVYLLMNSLKPEDTAVYYCAALESYGKYHGYWGQGTQVTVSS | low polyreactivity
18 | QVQLVESGGGLVQAGGSLSLSCAASGLILSDNAMGWYRQAPGKEREFVASITSSGGSTHYADSVKGRFTISRDNAKNTVYFQMNSLKPEDTAVYYCAKDYYEGDSYPYPGYEYWGQGTQVTVSS | low polyreactivity
19 | QVQLVESGGGLVQAGGSLRLSCAASGIIFRYYAMGWYRQAPGKERELVAAISSSGVSTYYADSVKGRFTISRDNAKNTVYLQMNSLKPEDTAVYYCNAVIWVRQYFSRSSSNYWGQGTQVTVSS | high polyreactivity
20 | QVQLVESGGGLVQAGGSLRLSCAASGSIFRRYAKGWYRQAPGKERELVAAITNRGGTTYYADSVKGRFTISRDNAKNSVYLQMNSLKPEDTAVYYCNAYYRTKGGFRFGYWGQVTQVTVSS | high polyreactivity
21 | QVQLVESGGGLVQAGGSLRLSCAASGSTLYAYAMGWYRQAPGKERELVASIPAGGITHYADSVKGRVTISRDNANNTVYLHMISLKPEDTAVDYCNTVAYLRRFDKWGMNYWGQGTQVTVSS | low polyreactivity
22 | QVQLQESGGGLVQAGGSPRLSCAASDNIFPDSVMCWYRQAPGKERELVATIGFGATTNSADSVKGRFTISRDNAKNTVYLQMNSLKPEDTAVYSCAADPLNYEYFCYWGQGTQVTVSS | low polyreactivity

Row | Sequence | polyreactivity (PSR sort gate)
23 | QVQLVESGGGLVQAGGSLRLICAASGSIFSSYAMGWYRQAPGKERELVAAITSGGSTYYADSVKGRFTISRDNAKNTVYLQMNSLKPEDTAVYYCAARQVRTSKLHMGYWGQGTQVTVSS | low polyreactivity
24 | QVQHVESGGGLVQAGGRLRLSCAASGSTFQLYAMGWYRQAPGKERELVASISWSGGSTYYADSVTGRFTISRDNAKNTVYLQMNSLKPEDTAVYYCNADFWWRYRPGAVFRSYGYWGQGTQVTVSS | low polyreactivity
25 | QVQLVESGGGLVQAGGSLRLSCAASGFIMDYNTMGGYRQAPGKERELVAAISSSGDTTYYAASVKGRFTISRDNAKNSVYLQMNCLKPDDTAVYYCAREYGDGYEYWGQGTQVTVSS | low polyreactivity
26 | QVQLVESGGGLVQAGGSLRLSCAASGSIFFEYAMGWSRQAPGKERELVASINRGGGSTYYSDSVKGRFTISRDNAKNTVYLQMNSLKPEDTAVSYCAAQWKYRQSYLDYYSGQGTQVTVSS | low polyreactivity
27 | QDQHVESGGGLVQAGGSLRLSCAAYGSTFLYYAMGWFRQAPGKERELVAAITSGGSTYYADSVKGRFTISRDNPKNTVFLQMNRLKPEDTAVYYCTVFGYGYWGQGTQVTVSS | high polyreactivity
28 | QVQLVESGGGLVQAGGSLRLSCAASGRIFKSYAMGWYRQSPGKERELVAIIRSSGTTYYADSVKGRFTISRDNAKNTVYLQMNSLKPEDTAVYYCAADPYYWRQFNYDYWGQGTQVTVSS | high polyreactivity
29 | QVQLVESGGGLVQAGGSLRLSCASSGFSFDYYVMGWYRQAPGKEMELVASNRSRGASTHYADSVKGRFTISRDNAKNTVYLQMNRLKTEDTAVYYCAKGGGYRRAARSFGGGDYWGQGTHVTVSS | low polyreactivity
30 | QVQLVESGGGLVQAGGSLRLSCAASGLTFRNYAMGLYRQAPGKERELDAAISRSGGSTYYADSVKGRFTISRDYAKNTVYLHMNSLKPEDTAVYYCATRTYRESTYDYWGQGTQVTVSS | high polyreactivity
31 | QVQLVESGGGLVQAGGSLRLSCAASGSTFVRYAMGWYRQAPGKERELVAAISSGGSRTYYADSVKGRFTISRDNAKNTVYLQMNSLKPEDTAVYYCATVSTYYHYRRYDYWGQGTQVTVSS | high polyreactivity
32 | QVQLHESGGGLVQAGGSLRLSCAAIGTISYSGPMGWYRQAPGKEREFVAGIGVGSNTNYADSVKGRYTIIRDNAKNTVYLQMNSLKPEDSAVYYCAVGGYAPLGRPYWGQGTQVTVSS | low polyreactivity
33 | QVPLVESGGGLVQAGGSLRLSCAASGSTLWVYAMGWSRQAPGKERELVAAITQSTGDTHYADSVKGRFTISRDNAKNTVYLQMNSLKPEDTAVYYCAADSYLSVYDPYGDWGQGTQVTVSS | low polyreactivity
34 | QVQLVESGGGLVQAGGRLSLSCSASGSIFEQKAMGWYRKAPGKEREFVATISDGGGTYYADSVKGRFTISRDNAKNTVYLQINSLKPEDNAVYYCAATFGGSVFVYDYWGQGTQVTLSS | low polyreactivity
35 | QVQLVESGGGLVQAGGSLRLSCAASGFTFAYYAMGWYRQAPGKERELVAAISYSGGSTYYADSVKGRFTISRDNAKNTVYLQMNSLKPVDTAVYYCAAEAGRRYNWGYDYWGQGTQVTVSS | high polyreactivity
36 | QVQLVESGGGLVQAGGSLRLSCAASGLTFYTNAMGWYRQAPGKERELVAAITSSGGRTYYADSVKGRFTISRDNAKNTVYLQMNILKPEDTAVYYCAADALRPRIPEMYYWGQGTQVTVSS | high polyreactivity
37 | QVQLVESGGGLVQAGGSLRLSCAASGFIFYSYDMGWYRQAPGKERELVAANDSRGVNTYYADSVKGRFTISRDNAKNTVYLQMNSLKPEDTAVYYCAAQASSQIDYYGGHYGYWGQGTQVTVSS | low polyreactivity
38 | QVQLVESGGGLVQAGGSLRLSCAASGRIFDVYAMGWYRQSPGKERELVAAISWSGSSTYYADSVKGRFTISRDTAKNTVYFQMNSLKPEDTAVYYCAADYPKTYTSKFNYWGQGTQVTVSS | high polyreactivity
39 | QVQLVESGGGLVQAGGSLRLSCAASGSIFTLYAMGWYRQAPGKEREFVAGISFSTGRTYYADSVKGRFSISRDNAKNTVYLQMNSLKPEDTAVYYCAAYVSHYWYGVYRDGYWGQGTQVTVSS | low polyreactivity
40 | QVQLVESGGGLVQAGGSLRLSCAASGSPSYFNVKGWYRQAPGKERQLVAAISWSGGSTYADSVKGRFTISRDNAKNTVYLQMNSLKREDTAFYYCNKDYGYVQLRFYCPGYYWGQGTQVTVSS | low polyreactivity
41 | QGQLVESGGGLVQAGGSLSLSCAASRFTFQRYAMGWDRQAPGKERELVAAISVSGGRTYYADSVKGRFTISRDNAKNSVYLQMNSLKPEDTAVYYCAAEGFLGWYYYWGQGNQVTVSS | high polyreactivity
42 | QVQRVESGVRLVQAGGSLRLSCASSGSIFRYYTMGWYRQAPGKERELVAAISRSGGSTYYADSVKGRFTISRDNAKNTVYLQMNSLKPVDTGVYYCAARYKRAQGYREGDYWGQGTQVTVSS | high polyreactivity
43 | QVQLVESGGGLVQAGGSLRLSCAASGRTFGEYTMGWYRQAPGKERELVAAISSAGRTNYADSVKGRFTISRDNAKNTVYLQMNSLKPEDTAVYYCAKTAERLHYGVYRFDYWGQGTQVTVSS | low polyreactivity

From the nanobody polyreactivity screen of Harvey et al. (2022)
